Measurements: patent publication US20230331848A1 (BIOSION, published 2023)

T1: recombinant mouse PD-1-his protein (Cat#:50124-M08H, Sino Biological Inc) (mouse, UniProt Q02242 25-167)
T1 construct: Bought protein used in Biacore and indirect ELISA; not shown: his tag
T1 sequence (looked up): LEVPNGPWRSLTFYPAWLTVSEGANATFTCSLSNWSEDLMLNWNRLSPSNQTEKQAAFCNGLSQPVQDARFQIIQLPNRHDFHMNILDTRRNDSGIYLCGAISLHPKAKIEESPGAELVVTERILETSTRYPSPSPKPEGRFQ


What was measured:
[1] = molecular target: T2, cynomolgus PD-1-his protein (Cat#:PD1-05223, Acro biosystems Inc.) (cynomolgus, UniProt B0LAJ3 25-170); test: SPR (Biacore), Example 9
T2 construct: Bought protein used in Biacore and indirect ELISA; also called monkey PD-1; Cyno PD-1

[2] = molecular target: T3, recombinant human PD-1-his protein (Cat#:10377-H08H, Sino biological Inc.) (human, UniProt Q15116 25-167); test: SPR (Biacore), Example 9
T3 construct: Bought protein used as analyte in the Biacore tests; not shown: his tag

[3] = molecular target: T4, human PD-1 expressed on GS-J2/PD-1 cells (Genscript) (human, UniProt Q15116 25-288); test: cell-based or functional assay
[4] = molecular target: T5, in house made human PD-1-Fc protein (human, biotin-labeled (sites not given)); test: competitive ELISA: biotin human PD-1-Fc + antibody on coated human PD-L1-Fc (competitor)
T5 construct: also called biotin-labeled human PD-1-Fc
Procedure: Briefly, 100 μl human PD-L1-Fc protein (prepared in-house with SEQ ID NO: 28) at 2 μg/mL in carbonate/bicarbonate buffer (pH 9.6) was coated on 96-well micro plates overnight at 4° C., Plates were washed with wash buffer (PBS+0.05% w/v Tween-20, PBST), and blocked with 5% w/v non-fatty milk in PBST for 2 hours at 37° C. […] After incubation at 37° C. for 40 minutes, plates were washed using wash buffer. […] Plates were washed again using wash buffer. Finally, TMB was added and the reaction was stopped using 1M H₂SO₄. The absorbance was read on a microplate reader using dual wavelength mode with 450 nm for TMB and 630 nm as the reference wavelength, then the OD (450-630) values were plotted against antibody concentrations. Data was analyzed using Graphpad Prism software and IC₅₀ values were reported.

[5] = molecular target: T6, human PD-1-his protein prepared in-house (human, UniProt Q15116 25-167, biotin-labeled (sites not given)); test: capture ELISA, antibody captured, biotin human PD-1-his detected
T6 construct: also called biotin labeled human PD-1-his
Procedure: Briefly, 96-well micro plates were coated with 100 μl 2 μg/ml AffiniPure Goat Anti-Mouse IgG F(ab′)₂ fragment specific (Cat#:115-005-072, Jackson lmmunoResearch) or Goat-anti-human IgG (Cat#:109-005-097, Jackson ImmunoResearch, for the positive control and negative control) in PBS overnight at 4° C. Plates were washed once with wash buffer (PBST, PBS+0.05% Tween-20) and then blocked with 200 μl/well blocking buffer (5% w/v non-fatty milk in PBST) for 2 hours at 37° C. […] After a final wash, plates were incubated with 100 μl/well TMB (Cat#:TMB-S-002, Innoreagents) at room temperature.
For the capture ELISA, 96-well plates were coated with 100 μl 2 μg/ml AffiniPure Goat Anti-Human IgG, Fcγ fragment specific (Cat#:109-005-098, Jackson Immunoresearch) instead of AffiniPure goat-anti-mouse IgG F(ab′)₂ fragment specific.

[6] = molecular target: T6, human PD-1-his protein prepared in-house; test: competitive ELISA: biotin human PD-1-his + antibody on coated Pembrolizumab (competitor)
Procedure: ELISA plates were washed once with wash buffer (PBST, PBS+0.05% Tween-20) and then blocked with 200 μl/well blocking buffer (5% w/v non-fatty milk in PBST) for 2 hours at 37° C. […] After incubation at 37° C. for 40 minutes, plates were washed using wash buffer, added and incubated with 100 μl/well Peroxidase Streptavidin for 40 minutes at 37° C. Plates were washed again using wash buffer. Finally, TMB was added and the reaction was stopped using 1M H₂SO₄. The absorbance was read on a microplate reader using dual wavelength mode with 450 nm for TMB and 630 nm as the reference wavelength, and the OD (450-630) values were plotted against antibody concentrations. Data was analyzed using Graphpad Prism software and IC₅₀ values were reported.

[7] = molecular target: T7, human PD-1-his protein (Cat#:PD1-H5221, Acro biosystems Inc.) (human, UniProt Q15116 25-167); test: BLI (Octet RED96), supernatant antibody captured on AHC sensor, human PD-1-his in solution, 1:1 fit
T7 construct: not shown: his tag
Procedure: Briefly, AHC biosensors (anti-human IgG Fe capture, from ForteBio) were presoaked with 10 mM glycine (pH 1.5) for 3 seconds, and then dipped in a well with running buffer (0.5% w/v BSA in PBST) for 3 seconds, the soaking and dipping steps were repeated for three times. […] A new baseline was run for 100 seconds in another well with running buffer. Then the sensors were dipped in a well with serially diluted human PD-1-his protein (Cat#:PD1-H5221, Acro biosystems Inc., starting at 100 nM with a two-fold serial dilution) in running buffer for 120 seconds, and then immersed in a baseline well for […]. Finally, sensors were presoaked with 10 mM glycine (pH 1.5) for 30 seconds, and then were dipped in a well with running buffer for 30 seconds. The association and dissociation curves were fit to a 1:1 Langmuir binding model using ForteBio Data Analysis 8.1 evaluation software.

[8] = molecular target: T2, cynomolgus PD-1-his protein …; test: indirect ELISA on coated cynomolgus PD-1-his
[9] = molecular target: T4, human PD-1 expressed on GS-J2/PD-1 …; test: cell-based binding FACS on GS-J2/PD-1 cells expressing human PD-1 (MFI); unit from the axis 'Con of mAb, nM.'
[10] = molecular target: T5, in house made human PD-1-Fc protein; test: blocking FACS: biotin human PD-1-Fc + antibody on GS-C2/PD-L1 cells (competitor: cell-surface human PD-L1)
Procedure: GS-C2/PDL1 cells were harvested from cell culture flasks at the log phase, washed twice and re-suspended in PBS containing 2% v/v Fetal Bovine Serum (FACS buffer). GS-C2/PD-L1 cells, 0.6×10⁵ cells per welt, were incubated in 96 well-plates with 100 the antibody/PD1-Fc mixture for 40 minutes at 4° C. Cells were washed twice with FACS buffer, added with 100 R-Phycoerythrin Streptavidin (1:500 dilution in FACS buffer, Cat#:016-110-084, Jackson Immunoresearch), and incubated for 40 minutes at 4° C. in dark. Cells were washed twice and re-suspended in FACS buffer. Fluorescence was measured using a Becton Dickinson FACS Canto II-HTS equipment. Data was analyzed using Graphpad Prism software and IC₅₀ values were reported.

[11] = molecular target: T4, human PD-1 expressed on GS-J2/PD-1 …; test: flow cytometry on GS-J2/PD-1 cells
Procedure: In specific, the 293F-mouse PD-1 cells and GS-J2/PD-1 cells were respectively harvested from cell culture flasks, washed twice and re-suspended in PBS containing 2% v/v Fetal Bovine Serum (FACS buffer). Then, 2×10⁵ cells per well were incubated in 96 well-plates with 100 μl of the anti-PD1 antibodies or controls at various concentrations for 40 minutes on ice. […] Following an incubation of 40 minutes at 4° C. in dark, cells were washed three times and re-suspended in FACS buffer. Fluorescence was measured using a Becton Dickinson FACS Canto II-HTS equipment and plotted against antibody concentrations. Data was analyzed using GraphPad Prism software and EC₅₀ values were reported.
For the cell-based binding FACS, R-Phycoerythrin AffiniPure Goat Anti-human IgG Fcγ fragment specific (Cat#:109-115-098, Jackson ImmunoResearch) was used for the humanized antibodies, with 1:1000 dilution in FACS buffer, 100 μl/well.

[12] = molecular target: T1, recombinant mouse PD-1-his protein …; test: SPR (Biacore), Example 9

Kd [1] [nM]	koff [1] [s⁻¹]	kon [1] [M⁻¹ s⁻¹]	Kd [2] [nM]	koff [2] [s⁻¹]	kon [2] [M⁻¹ s⁻¹]	Cell-based functional assay (EC50, nM) [3] [nM]	IC50 [4] [nM]	EC50 [5] [nM]	IC50 [6] [nM]	Kd [7] [nM]	koff [7] [s⁻¹]	kon [7] [M⁻¹ s⁻¹]	EC50 [8] [nM]	EC50 [9] [nM]	IC50 [10] [nM]	EC50 [11] [nM]	Kd [12] [nM]	koff [12] [s⁻¹]	kon [12] [M⁻¹ s⁻¹]	Binder
1.34	0.000484	361000	0.634	0.000593	934000	5.13	0.33	0.21	0.51	1.13	0.000291	258000	0.82	0.461	0.55	0.63	380	0.0182	47900	humanized antibody huE1A9C8A7-V8 (antibody, human IgG4 S228P, kappa, V domains shown, Human IgG4/kappa) VH: QVQLVQSGAEVVKPGASVKISCKASGYTFTDYVMHWVRQAPGQSLEWMGVISTYHIPAVYNQKFKGKATMTVDTSTSTVYLELSSLRSEDTAVYYCAREVYGDSYYFDVWGQGTTVTVSS VL: DIVMTQTPLSLPVTPGEPASISCRSSQSIVHSNGNTYLEWYLQKPGQSPQLLIYKVSNRFSGVPDRFSGSGSGTDFTLKISRVEAEDVGVYYCFQGSHVPYTFGGGTKVEIKR
0.722	0.000332	461000	0.382	0.00041	1.07e+06	–	–	–	–	–	–	–	–	0.451	–	–	244	0.0167	64800	humanized antibody huE1A9C8A7-V8-3 (antibody, human IgG4 S228P, kappa, V domains shown, huE1A9C8A7-V8 modified in VH CDR3 (D to E) and VL CDR1 (N to A)) VH: QVQLVQSGAEVVKPGASVKISCKASGYTFTDYVMHWVRQAPGQSLEWMGVISTYHIPAVYNQKFKGKATMTVDTSTSTVYLELSSLRSEDTAVYYCAREVYGESYYFDVWGQGTTVTVSS VL: DIVMTQTPLSLPVTPGEPASISCRSSQSIVHSAGNTYLEWYLQKPGQSPQLLIYKVSNRFSGVPDRFSGSGSGTDFTLKISRVEAEDVGVYYCFQGSHVPYTFGGGTKVEIKR
